Assay results as given in publication PMC2577008, “The Transcriptional Repressor Protein NsrR Senses Nitric Oxide Directly via a [2Fe-2S] Cluster” (PLoS ONE, 2008).

Experiments:
[2Fe-2S] NsrR (holo) [1] = molecular target: T1, [2Fe-2S] NsrR (holo) (Streptomyces coelicolor, UniProt Q9L132 1-148); experiment: analytical ultracentrifugation (sedimentation equilibrium); [2Fe-2S] cluster; 2 uM DNA, 10 uM NsrR; EMSA: 10 mM Tris-HCl pH 7.5, 60 mM KCl, on ice 2 min, ~20 ng probe, NsrR diluted to 500 nM in 50 mM Tris pH 7.0 (legend: 50 mM Tris pH 7.0, 100 mM NaCl); AUC: 5; conditions: protein: recombinant; tags: none stated (pET21a; reverse primer includes the stop codon); chain copies: 2; blunt
T1 sequence: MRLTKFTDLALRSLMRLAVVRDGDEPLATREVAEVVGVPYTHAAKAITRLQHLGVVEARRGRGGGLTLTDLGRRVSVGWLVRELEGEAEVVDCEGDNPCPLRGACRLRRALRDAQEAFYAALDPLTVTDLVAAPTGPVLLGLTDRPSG

[2Fe-2S] NsrR (holo) [2] = molecular target: T1, [2Fe-2S] NsrR (holo); experiment: analytical ultracentrifugation (sedimentation equilibrium); [2Fe-2S] cluster; 2 uM DNA, 10 uM NsrR; mass 17.4 to 47.3 kDa, homodimer; EMSA: 10 mM Tris-HCl pH 7.5, 60 mM KCl, on ice 2 min, ~20 ng probe, NsrR diluted to 500 nM in 50 mM Tris pH 7.0 (legend: 50 mM Tris pH 7.0, 100 mM NaCl); AUC: 5; conditions: protein: recombinant; tags: none stated (pET21a; reverse primer includes the stop codon); chain copies: 2; blunt
[3] = molecular target: the molecule itself; experiment: AUC; sedimentation equilibrium at 16,000, 18,000 and 20,000 rpm, absorbance at 260 nm; 10 uM monomeric NsrR with 2 uM 30 bp double-stranded oligonucleotide (hmpA2 or hmpA1 binding site); 50 mM Tris pH 8.0 (legend: pH 7.0), 100 mM NaCl, 1 mM dithiothreitol; one-component fit; the mass of the DNA-protein complex is measured
[2Fe-2S] NsrR (holo) [4] = molecular target: T1, [2Fe-2S] NsrR (holo); experiment: analytical ultracentrifugation (sedimentation equilibrium); [2Fe-2S] cluster; 2 uM DNA, 10 uM NsrR; mass 45.0 kDa with NsrR; EMSA: 10 mM Tris-HCl pH 7.5, 60 mM KCl, on ice 2 min, ~20 ng probe, NsrR diluted to 500 nM in 50 mM Tris pH 7.0 (legend: 50 mM Tris pH 7.0, 100 mM NaCl); AUC: 5; conditions: protein: recombinant; tags: none stated (pET21a; reverse primer includes the stop codon); chain copies: 2; blunt

B1: Control oligonucleotide (nsrR coding sequence) (dsDNA)
DNA 1: CCGCCTGCAGGCCCTGGGTGTG
DNA 2: CACACCCAGGGCCTGCAGGCGG
Question: Does B1 bind ([2Fe-2S] NsrR (holo) [1])?
Answer: Result: no binding

B2: hmpA2 30 bp oligonucleotide (dsDNA)
DNA 1: GGAAAACAAGCATCTGAGATCCCAGTTCGG
DNA 2: CCGAACTGGGATCTCAGATGCTTGTTTTCC
Question: Does B2 bind ([2Fe-2S] NsrR (holo) [2])?
Answer: Result: binds

B3: NsrR from Streptomyces coelicolor ([2Fe-2S] NsrR) (natural protein, UniProt Q9L132 1-148, looked up)
chain: MRLTKFTDLALRSLMRLAVVRDGDEPLATREVAEVVGVPYTHAAKAITRLQHLGVVEARRGRGGGLTLTDLGRRVSVGWLVRELEGEAEVVDCEGDNPCPLRGACRLRRALRDAQEAFYAALDPLTVTDLVAAPTGPVLLGLTDRPSG
notes: NsrR (SCO7427), Rrf2 family transcriptional repressor of Streptomyces coelicolor; nsrR gene amplified from genomic DNA with primers from the start codon (CATATG...) to the stop codon (TCA... on the reverse primer); calculated monomer mass 15.9 kDa; Carries a [2Fe-2S] cluster as purified (on average 28% cluster incorporation); also called SCO7427; holo [2Fe-2S]; NsrR
Question: For B3, which “stoichiometry N” value [3] is on record?
Answer: Its value is 2.

B4: hmpA1 30 bp oligonucleotide (dsDNA)
DNA 1: CTAAAACACGAATATCATCTACCAATTAAG
DNA 2: CTTAATTGGTAGATGATATTCGTGTTTTAG
Question: Does B4 bind ([2Fe-2S] NsrR (holo) [4])?
Answer: Result: binds
